According to paper PMC2603141 (Virology, 2008):

Molecular target: the molecule itself
Experiment: reducing and non-reducing SDS-PAGE

B1: PIV 5 HN stalk region, HN(stalk) (domain or fragment)
chain: SPSSGLGSITDLLNNILSVANQIIYNSAVALPLQLDTLESTLLTAIKSLQTSDKLEQNCSWSAAL
modifications: also: inter-chain disulfide, covalent dimer
  stoichiometry N: 2
